The values that follow come from patent US5856161, “Tumor necrosis factor receptor-I-associated protein kinase and methods for its use” (Research Development Foundation, dated 1999).

The target in one test is cdc2 (human, UniProt P06493). Put plainly: in vitro translated 35S-labelled protein, pull-down with GST-p80CD on glutathione agarose. Here is the method: (§1) U937 cells lysates (15×10⁶/assay) were prepared and affinity precipitated with the indicated fusion protein as described below. Whole cell extracts were prepared from 2×10⁶ U937 cells by boiling the cells in 100 μl of SDS-sample buffer. Proteins were resolved by 8.5% SDS-polyacrylamide gel electrophoresis, transferred to PVDF membrane, and probed with the indicated antibodies. The mock reaction contains GST-p60Δ8 without U937 cell lysates. […] The samples were subjected to 8.5% SDS-polyacrylamide gel electrophoresis and analyzed by a PhosphorImager. Ten percent of total ^35S-labeled protein (10% input) added to each binding reaction was loaded as a standard. […] The conditions utilized for this experiment were similar to those previously described (Dyson et al., 1989). Briefly, U937 cells were either treated without or with 0.1 nM TNF for 5 minutes. […] Precipitates bound to protein A/G sepharose beads were collected by centrifugation and washed four times in lysis buffer and one time in kinase buffer. The samples were subjected to 8.5% SDS-polyacrylamide gel electrophoresis and analyzed by a PhosphorImager and ImageQuant software.

In another test the target is cdk2 (human (endogenous, U937 cells); not …, UniProt P24941). The test is described as above. Here is the method:
as §1

The target in a further test is cdk4 (human, UniProt P11802). The experiment in a line: precipitation of U937 cell extracts with p13^suc1 -agarose, immunoblot. (In general: Immunoblotting shows a protein as a band on a membrane.)

Protocol for cdk4: U937 cells (4×10^6) were lysed and precipitated with p13^suc1 agarose. Beads were collected by centrifugation, washed with lysis buffer, and boiled in the presence of SDS-sample buffer. […] Immunoreactive bands were detected using horseradish peroxidase-conjugated secondary antibodies and the Enhanced Chemiluminescence system (ECL). […] Equal amounts of U937 cell lysates were incubated with 25 μg of either GST bound to glutathione agarose (−) or p13^suc1-agarose (+) for 1 hour at 4° C. with shaking. The beads were collected by centrifugation, and the supernatant was once more centrifuged. An equal volume of the supernatant was affinity precipitated with GST-p60Δ15. The precipitates were washed extensively, and in vitro kinase assays with histone H1 (5 μg) were performed as described below. Proteins were separated by 8% SDS-polyacrylamide gel electrophoresis and analyzed by a PhosphorImager and ImageQuant software. […] Equal amounts of U937 cell lysates were incubated with either GST bound to glutathione agarose (−) or p13^suc1-agarose (+) for 1 hour at 4° C. with shaking. The beads were collected by centrifugation, and the supernatant was once more centrifuged. An equal volume of the supernatant was affinity precipitated with either GST-p60Δ8 or GST-p60Δ15. The precipitates were washed extensively, and in vitro kinase assays with Rb^110 (0.2 μg) were performed as described below.

B1: GST-p80CD (receptor)
chain: KKKPLCLQREAKVPHLPADKARGTQGPEQQHLLITAPSSSSSSLESSASALDRRAPTRNQPQAPGVEASGAGEARASTGSSDSSPGGHGTQVNVTCIVNVCSSSDHSSQCSSQASSTMGDTDSSPSESPKDEQVPFSKEECAFRSQLETPETLLGSTEEKPLPLGVPDAGMKPS
B1: the binding result in the test with cdc2 and in the test with cdk2 was “no binding” each time.

B2: p13^suc1 -agarose (other)
chain: SKSGVPRLLTASERERLEPFIDQIHYSPRYADDEYEYRHVMLPKAMLKAIPTDYFNPETGTLRILQEEEWRGLGITQSLGWEMYEVHVPEPHILLFKREKDYQMKFSQQRGG
In the case of B2, in the test with cdk4, the binding result is given as “no binding”.
